Experiments:
[1] = target: DNA-dependent protein kinase catalytic subunit (DNA-PKcs) (human) (UniProt P78527); assay: cell-based or functional assay
[2] = target: DNA-dependent protein kinase catalytic subunit (DNA-PKcs) (human) (UniProt P78527); assay: SPR (Biacore X), scFv amine coupled to a CM-5 chip, purified DNA-PKcs as analyte, 25 C

UniProt P78527, sequence (P78527 whole entry): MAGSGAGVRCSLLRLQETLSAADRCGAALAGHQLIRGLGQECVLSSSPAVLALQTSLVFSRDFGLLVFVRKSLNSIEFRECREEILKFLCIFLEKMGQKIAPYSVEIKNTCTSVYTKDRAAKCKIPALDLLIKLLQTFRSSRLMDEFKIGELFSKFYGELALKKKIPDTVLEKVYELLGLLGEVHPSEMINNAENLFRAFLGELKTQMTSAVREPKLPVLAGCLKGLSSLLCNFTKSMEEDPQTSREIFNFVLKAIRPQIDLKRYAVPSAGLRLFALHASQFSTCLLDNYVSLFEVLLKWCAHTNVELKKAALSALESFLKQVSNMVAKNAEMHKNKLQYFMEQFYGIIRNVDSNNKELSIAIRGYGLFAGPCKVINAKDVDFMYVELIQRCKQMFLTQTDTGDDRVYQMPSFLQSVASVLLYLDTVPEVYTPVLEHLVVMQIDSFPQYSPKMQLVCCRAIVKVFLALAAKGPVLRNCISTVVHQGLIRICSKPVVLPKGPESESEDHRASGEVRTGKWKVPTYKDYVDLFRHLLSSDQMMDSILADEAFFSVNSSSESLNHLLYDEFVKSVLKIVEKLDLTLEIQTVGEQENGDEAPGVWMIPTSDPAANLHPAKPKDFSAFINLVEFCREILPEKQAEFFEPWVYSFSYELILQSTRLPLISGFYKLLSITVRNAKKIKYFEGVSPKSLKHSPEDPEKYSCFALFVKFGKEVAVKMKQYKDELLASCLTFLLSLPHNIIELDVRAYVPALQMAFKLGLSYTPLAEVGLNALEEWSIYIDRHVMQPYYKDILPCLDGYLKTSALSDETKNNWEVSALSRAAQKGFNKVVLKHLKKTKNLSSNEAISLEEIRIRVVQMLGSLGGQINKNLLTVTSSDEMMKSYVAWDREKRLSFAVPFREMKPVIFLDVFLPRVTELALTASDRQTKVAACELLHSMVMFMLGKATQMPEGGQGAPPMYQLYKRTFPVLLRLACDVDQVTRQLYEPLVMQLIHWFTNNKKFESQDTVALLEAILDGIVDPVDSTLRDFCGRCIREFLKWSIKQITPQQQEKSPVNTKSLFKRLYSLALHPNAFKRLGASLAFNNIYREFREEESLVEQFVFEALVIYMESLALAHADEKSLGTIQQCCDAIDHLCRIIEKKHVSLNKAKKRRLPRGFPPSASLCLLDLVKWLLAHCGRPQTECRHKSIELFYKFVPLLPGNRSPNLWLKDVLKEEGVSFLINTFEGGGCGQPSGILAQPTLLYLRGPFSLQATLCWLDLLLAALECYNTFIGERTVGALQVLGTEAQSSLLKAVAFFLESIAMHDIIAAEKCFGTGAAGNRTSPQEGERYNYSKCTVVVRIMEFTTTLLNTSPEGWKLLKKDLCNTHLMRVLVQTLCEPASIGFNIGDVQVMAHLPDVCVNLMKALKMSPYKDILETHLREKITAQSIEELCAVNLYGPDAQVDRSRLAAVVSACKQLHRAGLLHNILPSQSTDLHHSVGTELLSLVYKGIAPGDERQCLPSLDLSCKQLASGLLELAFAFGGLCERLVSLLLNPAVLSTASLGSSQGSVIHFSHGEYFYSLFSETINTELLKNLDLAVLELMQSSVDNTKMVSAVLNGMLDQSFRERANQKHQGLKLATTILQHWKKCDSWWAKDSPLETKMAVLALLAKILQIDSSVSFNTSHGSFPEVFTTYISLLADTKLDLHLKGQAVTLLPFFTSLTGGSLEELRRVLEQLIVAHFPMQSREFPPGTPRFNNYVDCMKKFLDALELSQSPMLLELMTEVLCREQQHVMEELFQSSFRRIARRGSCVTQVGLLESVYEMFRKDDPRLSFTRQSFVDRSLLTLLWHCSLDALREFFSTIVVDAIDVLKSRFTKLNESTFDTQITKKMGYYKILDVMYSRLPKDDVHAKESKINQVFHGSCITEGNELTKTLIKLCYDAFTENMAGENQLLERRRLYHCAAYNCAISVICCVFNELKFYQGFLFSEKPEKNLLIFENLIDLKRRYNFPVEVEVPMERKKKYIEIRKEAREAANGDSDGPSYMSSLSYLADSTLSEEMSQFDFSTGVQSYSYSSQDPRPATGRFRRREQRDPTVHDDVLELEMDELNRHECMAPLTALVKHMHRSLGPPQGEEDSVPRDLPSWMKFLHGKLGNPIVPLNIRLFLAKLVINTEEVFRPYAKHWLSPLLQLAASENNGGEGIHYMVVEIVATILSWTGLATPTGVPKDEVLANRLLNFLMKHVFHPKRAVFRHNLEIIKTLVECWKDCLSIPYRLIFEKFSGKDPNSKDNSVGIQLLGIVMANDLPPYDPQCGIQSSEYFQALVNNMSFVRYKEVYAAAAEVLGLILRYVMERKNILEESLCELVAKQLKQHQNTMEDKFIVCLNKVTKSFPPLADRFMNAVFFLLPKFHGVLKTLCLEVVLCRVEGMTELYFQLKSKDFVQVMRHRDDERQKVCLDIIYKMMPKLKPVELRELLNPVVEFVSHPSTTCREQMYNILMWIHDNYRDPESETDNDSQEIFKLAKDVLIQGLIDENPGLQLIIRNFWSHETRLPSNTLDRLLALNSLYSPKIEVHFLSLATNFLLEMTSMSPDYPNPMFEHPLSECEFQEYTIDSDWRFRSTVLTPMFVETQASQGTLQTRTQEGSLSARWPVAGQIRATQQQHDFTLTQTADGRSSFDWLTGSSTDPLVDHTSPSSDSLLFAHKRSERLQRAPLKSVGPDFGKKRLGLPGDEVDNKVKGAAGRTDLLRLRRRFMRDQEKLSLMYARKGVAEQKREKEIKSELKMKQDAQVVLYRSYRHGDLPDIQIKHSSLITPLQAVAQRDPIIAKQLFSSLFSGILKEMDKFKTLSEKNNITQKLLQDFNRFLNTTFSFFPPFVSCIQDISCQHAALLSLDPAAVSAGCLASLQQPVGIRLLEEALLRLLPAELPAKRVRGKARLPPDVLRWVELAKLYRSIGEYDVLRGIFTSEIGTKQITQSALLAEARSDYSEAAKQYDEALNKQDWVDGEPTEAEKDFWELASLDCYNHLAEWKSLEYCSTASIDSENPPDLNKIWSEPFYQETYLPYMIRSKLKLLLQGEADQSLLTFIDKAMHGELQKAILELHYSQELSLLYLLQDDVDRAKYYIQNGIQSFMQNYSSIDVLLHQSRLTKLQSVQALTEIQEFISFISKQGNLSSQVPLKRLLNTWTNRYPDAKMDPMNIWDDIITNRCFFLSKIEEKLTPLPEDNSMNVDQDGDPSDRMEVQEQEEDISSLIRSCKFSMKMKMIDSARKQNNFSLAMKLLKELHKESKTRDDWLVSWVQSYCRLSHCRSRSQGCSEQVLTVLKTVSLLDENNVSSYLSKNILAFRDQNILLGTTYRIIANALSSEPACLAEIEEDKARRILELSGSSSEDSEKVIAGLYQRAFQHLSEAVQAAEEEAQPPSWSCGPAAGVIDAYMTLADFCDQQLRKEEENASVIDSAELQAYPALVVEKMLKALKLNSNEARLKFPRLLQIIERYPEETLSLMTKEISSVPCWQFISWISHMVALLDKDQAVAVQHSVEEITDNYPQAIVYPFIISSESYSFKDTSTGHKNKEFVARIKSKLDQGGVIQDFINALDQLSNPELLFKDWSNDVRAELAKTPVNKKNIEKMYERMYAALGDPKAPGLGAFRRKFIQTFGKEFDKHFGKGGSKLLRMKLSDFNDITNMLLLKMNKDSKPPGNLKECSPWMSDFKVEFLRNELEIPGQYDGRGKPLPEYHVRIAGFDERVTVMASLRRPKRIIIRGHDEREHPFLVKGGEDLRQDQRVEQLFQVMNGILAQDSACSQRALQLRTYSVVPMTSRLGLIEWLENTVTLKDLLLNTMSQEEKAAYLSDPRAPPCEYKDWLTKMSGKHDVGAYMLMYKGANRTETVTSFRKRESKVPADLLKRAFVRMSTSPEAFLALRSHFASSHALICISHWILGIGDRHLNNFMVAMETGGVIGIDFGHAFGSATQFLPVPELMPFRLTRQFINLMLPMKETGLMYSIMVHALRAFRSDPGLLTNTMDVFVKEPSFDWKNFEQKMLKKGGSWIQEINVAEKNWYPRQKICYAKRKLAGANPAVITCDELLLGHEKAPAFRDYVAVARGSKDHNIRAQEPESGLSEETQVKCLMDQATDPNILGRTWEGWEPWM

decrease in p53 peptide phosphorylation activity [1]: 50%
Kd [2]: 1.4 nM
B1: scFv 18-2 (scFv, V domains shown)
VH: QVKLQESGAELVKPGASVKLSCKAFDYTFTTYDINWIKQRPGQGLWIGWIYPGSGNNKYNEKFKGKATLTADKSSRAAYMHLSSLTSEDSAVYFCAGGPLNMTGFDYWGQGTTVTVSS
VL: DIELTQSPSSMYASLGERVTITCKASQDINSYLSWFQQKPGKSPKTLIYRANRLVDGVPSRFSGSGSGQDYSLTISSLEYEDMGIYYCLQYDELPLTFGAGTKLEIK
